The source of these data is publication doi:10.1101/791277, “Assembly of novel, nuclear dimers of the PI3-Kinase regulatory subunits underpins the pro-proliferative activity of the Cdc42-activated tyrosine kinase, ACK” (bioRxiv, 2019).

Where no end group is shown, it is not given here. [ ]: non-standard residue; d: D form. The star is where a group is joined. 5FAM = O=C1OC2(c3ccc(O)cc3Oc3cc(O)ccc32)c2ccc(C(=O)*)cc21; pY = N[C@@H](Cc1ccc(OP(=O)(O)O)cc1)C(=O)O

One test has as its target T1, p85α cSH2 (614-720) (human, UniProt P27986 614-720).
T1 construct: PI3-Kinase regulatory subunit p85α, C-terminal SH2 domain, residues 614-720; also called cSH2 domain of p85α; source: E. coli, purified (glutathione-agarose, HRV 3C cleavage, S75 size exclusion)
Description: fluorescence polarisation; 5-FAM peptide at 20 nM (CD28, p85α, phospho-p85α) or 40 nM (p85β, phospho-p85β), SH2 domain titrated; 298 K; anisotropy fitted to a single site binding isotherm. The note with it: both partners purified. On the technique in general: In fluorescence polarisation assays a small probe gives low polarisation when free and higher when bound to something large.

Another test concerns the target T2, p85β cSH2 (603-712) (mouse, UniProt O08908 603-712).
T2 construct: PI3-Kinase regulatory subunit p85β, C-terminal SH2 domain, residues 603-712; also called cSH2 domain of p85β; source: E. coli, purified (glutathione-agarose, HRV 3C cleavage, S75 size exclusion)
T2 sequence (looked up): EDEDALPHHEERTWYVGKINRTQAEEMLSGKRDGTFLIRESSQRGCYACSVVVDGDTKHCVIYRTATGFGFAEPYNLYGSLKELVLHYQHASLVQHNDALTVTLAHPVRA
The description is as above. As to conditions: both partners purified.

T1 sequence (P27986 614-720): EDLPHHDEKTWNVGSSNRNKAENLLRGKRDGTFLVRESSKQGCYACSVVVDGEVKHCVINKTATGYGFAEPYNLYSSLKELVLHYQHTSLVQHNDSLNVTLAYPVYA

B1: CD28 peptide, [5-FAM]-SD-[pY]-MNMTP (peptide)
peptide: 5FAM-SD[pY]MNMTP
notes: known SH2 target phosphopeptide from CD28; also called control peptide from CD28; source: synthetic peptide, bought: Biomatik
Regarding B1, the binding result with p85α cSH2 (614-720) and with p85β cSH2 (603-712) was “binds” each time.
